Measurements as given in paper PMC4027191 (Nucleic Acids Research, 2014).

T1: Recombinant His-tagged RECQL1 (human, UniProt P46063 1-649)
T1 sequence (looked up): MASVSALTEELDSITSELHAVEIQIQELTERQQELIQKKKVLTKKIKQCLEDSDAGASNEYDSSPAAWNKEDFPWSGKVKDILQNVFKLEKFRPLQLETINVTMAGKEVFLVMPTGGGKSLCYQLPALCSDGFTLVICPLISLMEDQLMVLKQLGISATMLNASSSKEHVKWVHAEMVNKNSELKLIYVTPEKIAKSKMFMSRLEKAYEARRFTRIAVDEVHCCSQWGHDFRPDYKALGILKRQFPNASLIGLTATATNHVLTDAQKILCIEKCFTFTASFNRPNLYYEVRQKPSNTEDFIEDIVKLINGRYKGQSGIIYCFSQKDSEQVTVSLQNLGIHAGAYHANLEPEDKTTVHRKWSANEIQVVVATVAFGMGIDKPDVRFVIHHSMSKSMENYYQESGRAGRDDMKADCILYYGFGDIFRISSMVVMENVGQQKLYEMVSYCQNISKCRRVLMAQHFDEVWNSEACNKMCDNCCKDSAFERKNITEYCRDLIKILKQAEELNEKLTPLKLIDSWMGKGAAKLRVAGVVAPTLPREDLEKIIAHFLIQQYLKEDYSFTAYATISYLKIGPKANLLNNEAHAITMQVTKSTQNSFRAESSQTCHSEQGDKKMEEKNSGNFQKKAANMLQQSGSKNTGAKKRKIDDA


Experiments:
TRF1 [1] = target: T2, TRF1 (Homo sapiens, UniProt P54274 1-439); assay: EMSA; text gives ~50 nM; EMSA buffer, pH and temperature not given in the material
RECQL1 = RECQL1 (Homo sapiens, UniProt P46063 1-649); assay: EMSA; EMSA buffer, pH and temperature not given in the material
TRF2 [2] = target: T3, TRF2 (Homo sapiens, UniProt Q15554 1-542); assay: EMSA; text gives ~100 nM, binds weakly; EMSA buffer, pH and temperature not given in the material
TRF2 [3] = target: T3, TRF2; assay: EMSA; EMSA buffer, pH and temperature not given in the material
TRF1 [4] = target: T2, TRF1; assay: as above
[5] = target: T1, Recombinant His-tagged RECQL1; assay: cell-based or functional assay

T2 sequence (P54274 whole entry): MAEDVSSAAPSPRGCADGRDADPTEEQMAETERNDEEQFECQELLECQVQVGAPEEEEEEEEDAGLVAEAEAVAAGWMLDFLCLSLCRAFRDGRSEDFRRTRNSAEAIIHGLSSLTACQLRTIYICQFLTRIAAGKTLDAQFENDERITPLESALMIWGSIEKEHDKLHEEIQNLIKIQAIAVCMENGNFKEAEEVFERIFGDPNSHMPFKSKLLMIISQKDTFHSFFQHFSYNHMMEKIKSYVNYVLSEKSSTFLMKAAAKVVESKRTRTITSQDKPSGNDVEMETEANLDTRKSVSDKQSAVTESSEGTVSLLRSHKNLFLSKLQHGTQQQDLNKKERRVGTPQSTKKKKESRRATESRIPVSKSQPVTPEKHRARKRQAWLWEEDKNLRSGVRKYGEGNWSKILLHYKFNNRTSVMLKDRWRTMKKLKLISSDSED

helicase activity of RECQL1 left on the 8-oxoguanine telomeric D-loop DL4 with TRF2 at a molar ratio of 1:4 (RECQL1:TRF2) [5] [%] | Binder | Kd (TRF1 [1]) [nM] | Kd (RECQL1) [nM] | Kd (TRF2 [2]) [nM] | Kd (TRF2 [3]) [nM] | Kd (TRF1 [4]) [nM]
 | DL1 (telomeric D-loop) (structured_DNA) DNA 1: CACCATCCAGTTCTCTTTTGAGAACTGGATGGTGTTAGGGTTAGGGTTAGGGTTAGGGTTAACGCTC DNA 2: TCAAGCTCGGTCTGCAGTCAGGATGATTGTGAGCGTTAACCCTAACCCTAACCCTAACCCTAATCTGCACTCGAGACTCACGTCCTGGTCACG DNA 3: CGTGACCAGGACGTGAGTCTCGAGTGCAGACCTTTTTTTTTTTTTTTTTTTTTTTTTTTTTTTACAATCATCCTGACTGCAGACCGAGCTTGA | 40 ± 5 | 10 ± 2.5 | 90 ± 12.5 |  | 
 | DL4 (telomeric D-loop with two 8-oxoG) (structured_DNA, 8-oxo-dG at positions 39 and 57 of strand 1 (written as G)) DNA 1: CACCATCCAGTTCTCTTTTGAGAACTGGATGGTGTTAGGGTTAGGGTTAGGGTTAGGGTTAACGCTC DNA 2: TCAAGCTCGGTCTGCAGTCAGGATGATTGTGAGCGTTAACCCTAACCCTAACCCTAACCCTAATCTGCACTCGAGACTCACGTCCTGGTCACG DNA 3: CGTGACCAGGACGTGAGTCTCGAGTGCAGACCTTTTTTTTTTTTTTTTTTTTTTTTTTTTTTTACAATCATCCTGACTGCAGACCGAGCTTGA |  | 12.5 ± 5 |  | 125 ± 10 | 50 ± 10
~40 | Recombinant histidine-tagged human TRF2 (natural protein, UniProt Q15554 1-542, looked up) MAAGAGTAGPASGPGVVRDPAASQPRKRPGREGGEGARRSDTMAGGGGSSDGSGRAAGRRASRSSGRARRGRHEPGLGGPAERGAGEARLEEAVNRWVLKFYFHEALRAFRGSRYGDFRQIRDIMQALLVRPLGKEHTVSRLLRVMQCLSRIEEGENLDCSFDMEAELTPLESAINVLEMIKTEFTLTEAVVESSRKLVKEAAVIICIKNKEFEKASKILKKHMSKDPTTQKLRNDLLNIIREKNLAHPVIQNFSYETFQQKMLRFLESHLDDAEPYLLTMAKKALKSESAASSTGKEDKQPAPGPVEKPPREPARQLRNPPTTIGMMTLKAAFKTLSGAQDSEAAFAKLDQKDLVLPTQALPASPALKNKRPRKDENESSAPADGEGGSELQPKNKRMTISRLVLEEDSQSTEPSAGLNSSQEAASAPPSKPTVLNQPLPGEKNPKVPKGKWNSSNGVEEKETWVEEDELFQVQAAPDEDSTTNITKKQKWTVEESEWVKAGVQKYGEGNWAAISKNYPFVNRTAVMIKDRWRTMKRLGMN |  |  |  |  | 
